Reference: article doi:10.1101/2023.05.26.542392

Target: Full-length SARS-Cov-2-Nucleocapsid (FLN), WT (SARS-CoV-2)
Experiment: AUC

For “Full-length SARS-Cov-2-Nucleocapsid (FLN), WT (natural protein)”, the stoichiometry N was 2.
